Measured values as given in the supplement of paper PMC7877785.
± gives the uncertainty stated by the source.

Assay: self-splicing fitness, log relative to wild type (ln ratio); higher = more splicing; Tetrahymena group I intron in knt gene, E. coli kanamycin selection, DiMSum; sequences stand for … in CUCUCU…GGAGGGAAAAGUUAUCAGGCAUGCACCUGGUAGCUAGUCUUUAAACCAAUAGAUUGCAUCGGUUUAAAAGGCAAGACCGUCAAAUUGCGGGAAAGGGGUCAACAGCCGUUCAGUACCAAGUCUCAGGGGAAACUUUGAGAUGGCCUUGCAAAGGGUAUGGUAAUAAGCUGACGGACAUGGUCCUAACCACGCAGCCAAGUCCUAAGUCAACAGAUCUUCUGUUGAUAUGGAUGCAGUUCACAGACUAAAUGUCGGUCGGGGAAGAUGUAUUCUUCUCAUAAGAUAUAGUCGGACCUCUCCUUAAUGGGAGCUAGCGGAUGAAGUGAUGCAACACUGGAGCCGCUGGGAACUAAUUUGUAUGCGAAAGUAUAUUGAUUAGUUUUGGAGUACUCGUGGUCG
Summary of the method: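 DiMSum derived fitness as the error-weighted combination of fold changes across replicates, kanamycin versus no kanamycin, normalised to wild type. E. coli BL21(DE3) held the library, which randomised all eight P1ex-region intron nucleotides within the knt kanamycin-resistance gene on pET-22b(+). Six replicate transformations grew overnight at 37°C or 30°C on LB agar with or without 25 μg/mL kanamycin, also containing 100 μg/mL carbenicillin, 50 μM IPTG and 0.2% rhamnose, and pooled colonies were amplicon-sequenced on an Illumina HiSeq 2500.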

Sequence | self-splicing fitness (ln) (30 °C) | self-splicing fitness (ln) (37 °C)
UCUUAGCAAUAUUACGUUCC | -3.4 ± 0.3 | –
UGAAAGCAAUAUUACGAAAA | -2.53 ± 0.23 | -1.14 ± 0.16
UGAAAGCAAUAUUACGAAGA | -2.23 ± 0.3 | -0.283 ± 0.19
UGAAAGCAAUAUUACGACCG | -0.0402 ± 0.16 | 0.0392 ± 0.2
UGAAAGCAAUAUUACGACGC | -2.04 ± 0.19 | 0.0256 ± 0.17
UGAAAGCAAUAUUACGAGAC | – | -1.65 ± 0.38
UGAAAGCAAUAUUACGAUCG | -0.144 ± 0.15 | 0.0927 ± 0.17
UGAAAGCAAUAUUACGCAUG | -0.902 ± 0.079 | -0.484 ± 0.091
UGAAAGCAAUAUUACGCGAC | -2.33 ± 0.42 | -2.08 ± 0.38
UGAAAGCAAUAUUACGCGAG | -1.63 ± 0.11 | -0.0143 ± 0.1
UGAAAGCAAUAUUACGCUCU | -2.48 ± 0.17 | -1.37 ± 0.18
UGAAAGCAAUAUUACGGAAC | -2.58 ± 0.22 | -0.53 ± 0.25
UGAAAGCAAUAUUACGGAGG | -3.75 ± 0.2 | -2.72 ± 0.26
UGAAAGCAAUAUUACGGCAC | -3.23 ± 0.16 | -1.48 ± 0.14
UGAAAGCAAUAUUACGGCCA | -0.0769 ± 0.21 | 0.0533 ± 0.28
UGAAAGCAAUAUUACGGCUA | 0.376 ± 0.092 | 0.259 ± 0.11
UGAAAGCAAUAUUACGUAUC | -3.86 ± 0.28 | -2.38 ± 0.25
UGAAAGCAAUAUUACGUGAU | -0.954 ± 0.077 | -1.45 ± 0.13
UGAAAGCAAUAUUACGUGCC | -0.125 ± 0.12 | -0.826 ± 0.15
UGAAAGCAAUAUUACGUUAA | -1.45 ± 0.089 | -0.938 ± 0.09
UGAAAGCAAUAUUACGUUAG | -1.1 ± 0.086 | -0.448 ± 0.096
UGAAAGCAAUAUUACGUUCU | -1.37 ± 0.11 | -0.484 ± 0.1
UGAAAGCAAUAUUACGUUGA | -3.13 ± 0.17 | -1.23 ± 0.15
UGACAGCAAUAUUACGAAGA | -3.28 ± 0.27 | -0.756 ± 0.16
UGACAGCAAUAUUACGAGCA | -0.681 ± 0.051 | 0.236 ± 0.064

Sequence | self-splicing fitness (ln) (30 °C) | self-splicing fitness (ln) (37 °C)
UGACAGCAAUAUUACGAGGG | -3.73 ± 0.44 | -2.11 ± 0.35
UGACAGCAAUAUUACGAUGC | -3.94 ± 0.28 | -2.72 ± 0.28
UGACAGCAAUAUUACGAUUG | -0.875 ± 0.061 | -0.525 ± 0.067
UGACAGCAAUAUUACGCAAU | -2.38 ± 0.12 | -1.84 ± 0.16
UGACAGCAAUAUUACGCACG | -0.996 ± 0.093 | -0.312 ± 0.14
UGACAGCAAUAUUACGCCCA | 0.217 ± 0.12 | 0.269 ± 0.16
UGACAGCAAUAUUACGCCCG | -0.421 ± 0.12 | 0.601 ± 0.2
UGACAGCAAUAUUACGCCGA | -1.44 ± 0.17 | -0.0813 ± 0.17
UGACAGCAAUAUUACGCGCC | -1.63 ± 0.12 | -0.153 ± 0.15
UGACAGCAAUAUUACGCGCG | -1.15 ± 0.1 | -0.132 ± 0.11
UGACAGCAAUAUUACGCUGC | -4.45 ± 0.25 | -2.65 ± 0.18
UGACAGCAAUAUUACGGAAG | -2.29 ± 0.11 | -1.19 ± 0.12
UGACAGCAAUAUUACGGACA | -0.474 ± 0.08 | 0.431 ± 0.12
UGACAGCAAUAUUACGGCAU | -1.88 ± 0.073 | -0.478 ± 0.087
UGACAGCAAUAUUACGGCGU | -2.71 ± 0.15 | -1.67 ± 0.16
UGACAGCAAUAUUACGGGAG | -1.59 ± 0.062 | -0.0844 ± 0.061
UGACAGCAAUAUUACGGGCA | -0.0919 ± 0.079 | 0.689 ± 0.093
UGACAGCAAUAUUACGGGCG | -0.223 ± 0.1 | 0.3 ± 0.11
UGACAGCAAUAUUACGGGUG | -0.383 ± 0.052 | -0.732 ± 0.074
UGACAGCAAUAUUACGGUAC | -4.6 ± 0.36 | -2.85 ± 0.38
UGACAGCAAUAUUACGGUCU | -1.58 ± 0.065 | -0.946 ± 0.072
UGACAGCAAUAUUACGUACA | -0.21 ± 0.087 | 0.281 ± 0.12
UGACAGCAAUAUUACGUACU | -0.423 ± 0.064 | 0.165 ± 0.085
UGACAGCAAUAUUACGUAGC | -4.08 ± 0.29 | -2.28 ± 0.28
UGACAGCAAUAUUACGUCAA | -2.37 ± 0.18 | -0.896 ± 0.11

Sequence | self-splicing fitness (ln) (30 °C) | self-splicing fitness (ln) (37 °C)
UGACAGCAAUAUUACGUCCA | -0.629 ± 0.061 | 0.245 ± 0.1
UGAGAGCAAUAUUACGACUU | -3.87 ± 0.22 | -2.31 ± 0.18
UGAGAGCAAUAUUACGAGUC | – | -3.22 ± 0.47
UGAGAGCAAUAUUACGCAUA | -3.24 ± 0.44 | –
UGAGAGCAAUAUUACGCCGA | -1.96 ± 0.36 | –
UGAGAGCAAUAUUACGCGAG | -3.56 ± 0.37 | -2.34 ± 0.22
UGAGAGCAAUAUUACGCGCC | -1.44 ± 0.33 | -1.09 ± 0.47
UGAGAGCAAUAUUACGCGUA | -2.26 ± 0.26 | -2.4 ± 0.31
UGAGAGCAAUAUUACGGAAA | – | -1.92 ± 0.39
UGAGAGCAAUAUUACGGAAU | – | 1.01 ± 0.35
UGAGAGCAAUAUUACGGAGC | -2.21 ± 0.18 | -1.94 ± 0.19
UGAGAGCAAUAUUACGGCUA | -1.67 ± 0.25 | -0.532 ± 0.35
UGAGAGCAAUAUUACGGGGC | -2.38 ± 0.39 | -2.17 ± 0.46
UGAGAGCAAUAUUACGGGUC | – | -1.33 ± 0.45
UGAGAGCAAUAUUACGGGUU | -2.45 ± 0.24 | -2.85 ± 0.31
UGAGAGCAAUAUUACGGUCG | -1.56 ± 0.083 | -0.464 ± 0.11
UGAGAGCAAUAUUACGGUGA | -2.54 ± 0.36 | -2.73 ± 0.44
UGAGAGCAAUAUUACGGUGU | -2.98 ± 0.24 | -2.36 ± 0.29
UGAGAGCAAUAUUACGUAAG | -3.27 ± 0.23 | -1.67 ± 0.21
UGAGAGCAAUAUUACGUACC | -2.65 ± 0.36 | –
UGAGAGCAAUAUUACGUCCU | -3.05 ± 0.24 | -2.57 ± 0.49
UGAGAGCAAUAUUACGUGAG | -2.43 ± 0.14 | -1.83 ± 0.2
UGAGAGCAAUAUUACGUGGU | -2.67 ± 0.14 | -2.61 ± 0.2
UGAGAGCAAUAUUACGUGUA | -2.07 ± 0.13 | –
UGAGAGCAAUAUUACGUGUU | -3.49 ± 0.25 | -1.36 ± 0.14

Sequence | self-splicing fitness (ln) (30 °C) | self-splicing fitness (ln) (37 °C)
UGAUAGCAAUAUUACGAAAG | -3 ± 0.14 | -1.67 ± 0.15
UGAUAGCAAUAUUACGAAGU | -3.67 ± 0.25 | -3.22 ± 0.26
UGAUAGCAAUAUUACGAAUA | -3.62 ± 0.47 | -0.595 ± 0.2
UGAUAGCAAUAUUACGACUU | -0.653 ± 0.17 | -0.431 ± 0.12
UGAUAGCAAUAUUACGAUUU | -1.76 ± 0.1 | -1.13 ± 0.12
UGAUAGCAAUAUUACGCACC | -1.02 ± 0.15 | -0.277 ± 0.22
UGAUAGCAAUAUUACGCAGA | -3.31 ± 0.24 | -1.38 ± 0.11
UGAUAGCAAUAUUACGCAGG | -3.38 ± 0.24 | -2.27 ± 0.36
UGAUAGCAAUAUUACGCCAA | -3.37 ± 0.27 | -1.85 ± 0.15
UGAUAGCAAUAUUACGCCAC | – | -0.614 ± 0.29
UGAUAGCAAUAUUACGCCCG | 0.00499 ± 0.21 | -0.455 ± 0.2
UGAUAGCAAUAUUACGCCUA | -0.439 ± 0.15 | -0.227 ± 0.16
UGAUAGCAAUAUUACGCGGG | -3.28 ± 0.31 | -1.7 ± 0.25
UGAUAGCAAUAUUACGCUAA | -1.82 ± 0.2 | -0.0947 ± 0.25
UGAUAGCAAUAUUACGCUUC | – | -2.45 ± 0.35
UGAUAGCAAUAUUACGCUUG | -0.924 ± 0.091 | 0.0889 ± 0.14
UGAUAGCAAUAUUACGGAGA | -2.83 ± 0.33 | -1.68 ± 0.42
UGAUAGCAAUAUUACGGAUG | -1.33 ± 0.1 | -0.978 ± 0.12
UGAUAGCAAUAUUACGGCAG | 0.188 ± 0.17 | 0.0746 ± 0.18
UGAUAGCAAUAUUACGGCCA | -0.243 ± 0.14 | 0.424 ± 0.2
UGAUAGCAAUAUUACGGCUC | -2.21 ± 0.15 | -1.29 ± 0.17
UGAUAGCAAUAUUACGGGAU | -2.03 ± 0.17 | -2.15 ± 0.26
UGAUAGCAAUAUUACGGGUU | -3.88 ± 0.23 | -1.98 ± 0.17
UGAUAGCAAUAUUACGGUAC | – | -2.12 ± 0.42
